# Data: the supplement of paper PMC12042874
# ± gives the uncertainty stated by the source.
# Test: amyloid nucleation score (Sup35N fusion, yeast selection) (log enrichment); library NNK3; higher = more nucleation; inactive = no reads after selection
# Summary of the method: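 DiMSum was used to calculate nucleation scores as log enrichment of output over input reads, centred on the mode score of non-aggregating sequences. Sequences with fewer than 100 input reads were not scored. Input and output came from Illumina sequencing of plasmid inserts in psi-negative yeast expressing peptides of 20 random codons fused to Sup35N, induced 24 hours with 100 μM copper sulfate and then grown 7 days at 30°C on medium lacking adenine and uracil.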
row,Substance,amyloid nucleation score
1,VVINHYMNHIAEHTDSLRGG,1.57 ± 0.075
2,ALWLPITVDWMLESGCGGCY,inactive
3,IFNLHWDTMLSIHMSIDALR,1.91 ± 0.1
4,CRTTRLTLNGVIVGNAGFSI,inactive
5,SSYLNSVNSCLNDNVSHCCS,-0.343 ± 0.68
6,FTNLMLTTMCSLTLLTRGFP,inactive
7,YCCNGYPACG,inactive
8,NTHAVLICKCKDCEWNMIGG,0.246 ± 0.66
9,CNIISQTRGHEISQCGSWMW,inactive
10,LWQDMRLLSGLL,inactive
11,LSEWI,inactive
12,CLGGHLTHLHL,inactive
13,GRHSALRASFGL,inactive
14,SSTNPGIH,inactive
15,SNDNGTHVSNYRALSSDREK,inactive
16,AWLMRLMSYLGSSGWE,inactive
17,ASRHSQMWIS,0.129 ± 0.88
18,LWKRCRNNEAFVLMVGRRQA,inactive
19,DFLVPIKARNYCLNVGPNTY,inactive
20,LMFSMRTDRSMCGKDPLKRA,inactive
21,NVVYTFPLYASDMGIGV,inactive
22,LTPSECMENYRGFSDMRRCP,inactive
23,SPRVSMYMSSQKGLEPWESV,inactive

row,Substance,amyloid nucleation score
1,RVVYLHNSVRLSLDVNPIAV,inactive
2,SFYNCTEVETHGRRICIFLY,inactive
3,SYRLCCSMIGFSTGGRSHVE,inactive
4,GAFCSND,inactive
5,SYAANGVWRSYDLCYQCQKV,-0.712 ± 1.1
6,VSLTFVVCRALFLSFTW,inactive
7,TDRRKK,inactive
8,LFSTMFDTIENYNIGCTCGF,2.01 ± 0.053
9,FMYLT,inactive
10,QKVLLWTSGPSSSRHRTEEF,inactive
11,RGPSAPNFWE,inactive
12,FGSPWPRLQMTQLLIVAMTL,inactive
13,VRPLRSVLFDVASNVIGSVG,inactive
14,PFTPFSHVR,inactive
15,GWIAYRGSDR,inactive
16,TAREMYSRKSRILRVILILS,inactive
17,DSDKNPHGVLSSIGCMYVRS,inactive
18,SVELNTKLVRYEVLSRMYRA,inactive
19,LGVYYVNNRYFADFKGVEHG,0.154 ± 0.67
20,MMAFTVFISEQDYSGIIFYE,inactive
21,QVSLLYSVECMTFSFGNGDA,1.6 ± 0.11
22,YDRGIVWH,inactive
23,RYADMSTMNAS,inactive

row,Substance,amyloid nucleation score
1,EAFSSHKNFNVTCFPK,1.77 ± 0.11
2,CRGGNFRPMEGATVNPLFEG,inactive
3,CHILKPWLGVRKPSPFCNYS,inactive
4,HLMTQMATRRL,inactive
5,LSSCKLSYSKQLSRTVNQL,inactive
6,SSVGTAFLYYRKYGICADG,inactive
7,NINRSPWLIGWGLPKLKRDH,inactive
8,VRILLRFLVVFRLYLVFC,inactive
9,VKVVNTSCPMDGLPNCLTRR,inactive
10,GSRLHRFPNVKLDALFIYRW,inactive
11,PSQAFS,inactive
12,NRSTGVKSQGIDFLLSCFLV,inactive
13,SFGSFMSHDEFSNVHSVGFP,inactive
14,FTLWYVFRCVRCNKVCSGTG,0.087 ± 0.26
15,LDHIGKFLFRVTGCCITFTR,inactive
16,RCLRKSSIFA,inactive
17,LAFCIMNRQFLPLYLPTCSV,inactive
18,RGILFLV,inactive
19,LKIAQHRGSVFNGDKK,inactive
20,SSTSCTHGYVGMFGFPSVVS,inactive
21,YNECYWK,inactive
22,YMDRFDK,inactive
23,HGSSCTRWAWALMNILDCVM,inactive

row,Substance,amyloid nucleation score
1,DCYRGVSLCELFDECR,inactive
2,WFCVLMDSAWDCRVIGGGGR,1.1 ± 0.13
3,LFKYLPCARRVQGRES,inactive
4,ELIDFTIGLL,inactive
5,YTLIIRLCFFNIGCAYRFSM,inactive
6,ELHYPVLVDS,inactive
7,DQGLLRLMDTWLCMGVRQPS,inactive
8,GKNKQLS,inactive
9,RDPWFLSMVVDLFGYLNWVM,0.338 ± 0.18
10,RLGVVASPLHSTCIGNLLHG,inactive
11,YHDFRMLFLWVVWSIVSIRS,inactive
12,FLLVR,inactive
13,VFRAGWPVWALDYELYSVRA,inactive
14,HITNGRGWRHGRVWSSIWFF,inactive
15,PTFVPARSRYSLNVFNPLDE,inactive
16,SEISWQVLCKNEDEYCHFWE,inactive
17,SSLPMGFRSVI,inactive
18,TVSCLLKKVSRIVTVCVEWD,inactive
19,NYIWLFVLYAIVRFSHWLDF,0.779 ± 0.14
20,CSVGVAVGMIG,inactive
21,RGKSLFLINTDM,-0.148 ± 0.7
22,PFNLPMARNETWGTVQAKIR,inactive
23,AVYGVFRRRS,inactive

row,Substance,amyloid nucleation score
1,SMKQMNMQHSSPRNRTDGRR,inactive
2,LLRVNSEAGESCQVSFTFNM,1.73 ± 0.093
3,VYRIARMAQHLIRWKNR,0.187 ± 0.7
4,LEGLSKNQWGCLDATCSYTE,inactive
5,RSFSECWCWISKLVGYLGVT,inactive
6,SVLHVLYCVGSECVYVSSSR,inactive
7,LWYVDTGAIILG,inactive
8,IVDGWR,inactive
9,AYRLEPT,inactive
10,MGSYM,inactive
11,NGYFLSQGGLLSLIMHFKIV,-0.041 ± 0.77
12,FFFKSLEVSVTQR,inactive
13,DVPSSSSMAFGIWLGLLCLD,inactive
14,RSCMQLVCTCPFTGTTSRMI,2.63 ± 0.055
15,GFTVG,inactive
16,YYLMLSIGQYSHTCMDGYVM,inactive
17,YLFPRVSLICERIWIENVGY,inactive
18,YDPFYGNDQVPIQIVFLCFP,inactive
19,RIYSDGRSSFSRQLVWVCSR,inactive
20,RIETYCVRGILAIE,inactive
21,RMFFYWDEFYSLIVGVMSGL,inactive
22,AYINTRYGFFGNLVDDTKSS,inactive
23,ALRQRNDCEPYIVRTFWVET,inactive

row,Substance,amyloid nucleation score
1,VDINRFMEPLSCVRCCDDSC,inactive
2,RFGFS,inactive
3,FLEKGLFSLDISFARDLAEA,inactive
4,DLHVWLGVKQ,inactive
5,MILCCNRRLFGRRSLANLCW,inactive
6,SMPRAEHSDVSCYAHYFSFR,inactive
7,SPVRVDWFSKRFSGYVMRTM,inactive
8,TCQRRYKKFS,-0.633 ± 0.52
9,FAGESN,inactive
10,SVAFSWGMWCDSLDYFGSVS,inactive
11,YSLNTSFIYIKIRYH,1.28 ± 0.11
12,FDVNIPFCSNSFSYHTNSGS,inactive
13,CTHEFTTRHLICFRFSKLVY,inactive
14,NNLRNIPE,inactive
15,FQTGPRYAWGLQTGLNKQVC,inactive
16,CHASVW,inactive
17,CQYFLSWRASVC,inactive
18,SGISFTCMRHEMVSLTGGL,inactive
19,RAVNKFAVNTTKGGSHSWHS,inactive
20,FMMEACSSDKGEQSMGSWIE,-0.32 ± 0.78
21,VTWIYSSNGVWINGDKSFML,1.22 ± 0.079
22,ITSGFDVEKCGNVNLSWEVW,inactive
23,RMFICSQYWFVWVKLPPCGL,inactive

row,Substance,amyloid nucleation score
1,FGKGRHWISAPSRWVRGDFG,inactive
2,FNMWIWS,inactive
3,AWVLCVKERFRSAGCECTGF,inactive
4,WQTDEDRRCKTDFISLF,inactive
5,VSSMGSV,inactive
6,FLQNFWA,inactive
7,FHYLMMTFIV,inactive
8,RYLILMDCFR,0.291 ± 0.23
9,TAEDYFMKVY,inactive
10,HSWWLWNGFVGLAPLVDNFF,inactive
11,QDEPTMNVQ,inactive
12,AVRWQSGSTRFLSCWLWQKN,inactive
13,IFASDTVL,inactive
14,MVKCQWGFRL,1.33 ± 0.12
15,TSDVEVSRMIVCIWTSFIYQ,0.142 ± 0.52
16,SAGLKS,inactive
17,YPSDPLLILDLGIAAC,inactive
18,KNTVSYSATLGKVSMSERRR,inactive
19,ISTIRYNISYANAYYSSRQG,0.699 ± 0.21
20,MFITRVLR,inactive
21,YSHGTAKIPQAVVNDVIKSI,inactive
22,LSSWTNLLIWSLNLCPVMFV,inactive
